Tests used:
[1] = molecular target: T1, subtype 1b derived E2 (BK strain) expressed by recombinant Sindbis virus Sinrep/HCV-BK1-1207 (Hepatitis C virus strain BK (genotype …, UniProt P26663 384-746)); assay: immunoprecipitation from cells infected with Sinrep/HCV-BK1-1207
T1 construct: Immunoprecipitated from lysates of infected cells; also called genotype 1b antigen

[2] = molecular target: T2, E2 glycoprotein expressed by recombinant vaccinia virus vHCV1-1488 (HCV-H) (Hepatitis C virus strain H (genotype 1a), UniProt P27958 384-746); assay: pulse-chase immunoprecipitation, reducing SDS-PAGE
T2 construct: 35S-labelled and immunoprecipitated from cell lysates in pulse-chase experiments
T2 sequence (P27958 384-746 limits assumed): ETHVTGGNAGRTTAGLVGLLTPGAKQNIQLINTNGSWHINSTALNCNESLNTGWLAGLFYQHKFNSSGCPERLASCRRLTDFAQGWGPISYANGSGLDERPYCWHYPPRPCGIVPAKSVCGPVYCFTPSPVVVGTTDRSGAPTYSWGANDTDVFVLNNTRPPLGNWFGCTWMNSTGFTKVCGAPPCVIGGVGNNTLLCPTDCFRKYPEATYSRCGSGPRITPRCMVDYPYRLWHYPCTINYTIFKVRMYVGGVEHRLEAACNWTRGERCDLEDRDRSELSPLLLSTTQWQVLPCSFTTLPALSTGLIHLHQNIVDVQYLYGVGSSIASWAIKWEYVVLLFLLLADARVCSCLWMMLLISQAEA

T1 sequence (P26663 384-746 limits assumed): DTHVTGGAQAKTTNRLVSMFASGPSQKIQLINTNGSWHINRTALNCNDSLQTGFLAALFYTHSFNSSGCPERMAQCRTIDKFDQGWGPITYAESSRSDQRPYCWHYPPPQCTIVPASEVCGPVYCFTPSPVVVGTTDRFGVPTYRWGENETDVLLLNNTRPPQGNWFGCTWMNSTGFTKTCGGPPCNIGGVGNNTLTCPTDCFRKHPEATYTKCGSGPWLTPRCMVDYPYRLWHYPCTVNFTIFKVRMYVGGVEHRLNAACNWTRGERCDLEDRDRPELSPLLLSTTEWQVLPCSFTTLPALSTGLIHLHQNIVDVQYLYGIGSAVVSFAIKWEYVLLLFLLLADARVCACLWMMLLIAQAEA

B1: HMAb 503 (antibody, V domains shown)
VH: QVQLQQWGAGLLKPSETLSLTCAVYGGSLSGYFWTWIRQSPGKGLEWIGESNYSGSTRYNPSLKSRVTISVDTSQNQFSLKLSSVTAADTAVYYCARGWAVDGMDVWGQGTTVTVSS
VL: SYELTQPPSVSVSPGQTARITCSGDALPKQYAYWYQQKPGQAPVLVIYKDNERPSGIPERFSGSRSGTTVTLTISGVQAEDEADYYCQSADSSGSSWVFGGGTKLTVL
notes: also called antibody 503; clone 503
Which results are given for B1?
binding result [1]: binds; binding result [2]: binds

Reference: patent US20060153833A1 (Genmab, published 2006)
